Assay results published in US20170183403A1 (UNIVERSIT T Z RICH, published 2017).

How the values were obtained:
Reference peptide no. 29 = target: T1, Reference peptide no. 29; experiment: peptide microarray (RepliTope), 15-mers
T1 construct: hIL-2 15-mer, first library, on microarray; also called peptide 29
T1 peptide: LISNINVIVLELKGS
Procedure: (§1) Additional incubations are with unrelated antibodies from the same isotype (mouse control IgG2a/lambda and mouse control IgG2a/kappa), and secondary antibodies (anti-mouse IgG (Thermo 84545, label DL650) or anti-mouse IgG (JIR 115-175-072, Label Cy5)) to assess unspecific binding due to the detection antibody. The experiments are performed essentially as described in Maksimov P, et al. 2012, PLoS One 7:e34212. doi:10.1371/journal. pone. 0034212.
(§2) The determination of peptide-antibody binding was performed by RepliTope-analysis where the peptide microarray (triplicate) was incubated with the primary antibody followed by a fluorescently labelled secondary antibody directed against the Fc-part of the primary one. All steps were performed on a TECAN microarray processing station enabling highly reliable and reproducible washing and incubation steps. After performing the incubation steps and subsequent to the final washing steps (to remove the unbound secondary antibodies) the microarrays were dried using a nitrogen stream and scanned in a high resolution microarray scanning system with appropriate wavelength settings. Control incubations were performed with an unrelated antibody having the same isotype to exclude false positive signals.
(§3) The resulting images were analyzed und quantified using spot-recognition software GenePix (Molecular Devices). For each spot, the mean signal intensity was extracted (between 0 and 65535 arbitrary units). For further data evaluation, the MMC2 values were determined. The MMC2 equals the mean value of all three instances on the microarray. Except the coefficient of variation (CV)—standard-deviation divided by the mean value—is larger 0.5, in this case the mean of the two closest values (MC2) is assigned to MMC2.

Reference peptide no. 7 = target: T2, Reference peptide no. 7; experiment: peptide microarray (RepliTope), 15-mers
T2 construct: hIL-2 15-mer, first library, on microarray; also called peptide 7
T2 peptide: LDLQMILNGINNYKN
Procedure: as §1, §2, §3

Reference peptide no. 8 = target: T3, Reference peptide no. 8; experiment: peptide microarray (RepliTope), 15-mers
T3 construct: hIL-2 15-mer, first library, on microarray; also called peptide 8
T3 peptide: QMILNGINNYKNPKL
Procedure: as §1, §2, §3

Reference peptide no. 45 = target: T4, Reference peptide no. 45; experiment: peptide microarray (RepliTope), 15-mers
T4 construct: second library: peptide 13 with F(62) to Ala; also called peptide 45
T4 peptide: TRMLTAKFYMPKKAT
Procedure: as §1, §2, §3

Reference peptide no. 13 [1] = target: T5, Reference peptide no. 13; experiment: peptide microarray (RepliTope), 15-mers
T5 construct: hIL-2 15-mer, first library, on microarray; also called peptide 13
T5 peptide: TRMLTFKFYMPKKAT
Procedure: as §1, §2, §3

Reference peptide no. 49 = target: T6, Reference peptide no. 49; experiment: peptide microarray (RepliTope), 15-mers
T6 construct: second library: peptide 13 with Y(65) to Ala; also called peptide 49
T6 peptide: TRMLTFKFAMPKKAT
Procedure: as §1, §2, §3

Reference peptide no. 1 = target: T7, Reference peptide no. 1; experiment: peptide microarray (RepliTope), 15-mers
T7 construct: hIL-2 15-mer, first library, on microarray; also called peptide 1
T7 peptide: APTSSSTKKTQLQLE
Procedure: as §1, §2, §3

Reference peptide no. 15 = target: T8, Reference peptide no. 15; experiment: peptide microarray (RepliTope), 15-mers
T8 construct: hIL-2 15-mer, first library, on microarray; also called peptide 15
T8 peptide: KFYMPKKATELKHLQ
Procedure: as §1, §2, §3

Reference peptide no. 39 = target: T9, Reference peptide no. 39; experiment: peptide microarray (RepliTope), 15-mers
T9 construct: hIL-2 15-mer, first library, parental Cys replaced by Ser, on microarray; also called peptide 39
T9 peptide: VEFLNRWITFSQSII
Procedure: as §1, §2, §3

Reference peptide no. 3 = target: T10, Reference peptide no. 3; experiment: peptide microarray (RepliTope), 15-mers
T10 construct: hIL-2 15-mer, first library, on microarray; also called peptide 3
T10 peptide: TKKTQLQLEHLLLDL
Procedure: as §1, §2, §3

Reference peptide no. 33 = target: T11, Reference peptide no. 33; experiment: peptide microarray (RepliTope), 15-mers
T11 construct: hIL-2 15-mer, first library, parental Cys replaced by Ser, on microarray; also called peptide 33
T11 peptide: KGSETTFMSEYADET
Procedure: as §1, §2, §3

Reference peptide no. 43 = target: T12, Reference peptide no. 43; experiment: peptide microarray (RepliTope), 15-mers
T12 construct: second library: peptide 11 with F(62) to Ala; also called peptide 43
T12 peptide: YKNPKLTRMLTAKFY
Procedure: as §1, §2, §3

Reference peptide no. 46 = target: T13, Reference peptide no. 46; experiment: peptide microarray (RepliTope), 15-mers
T13 construct: second library: peptide 14 with F(62) to Ala; also called peptide 46
T13 peptide: LTAKFYMPKKATELK
Procedure: as §1, §2, §3

Reference peptide no. 12 = target: T14, Reference peptide no. 12; experiment: peptide microarray (RepliTope)
T14 construct: hIL-2 15-mer, first library, on microarray; also called peptide 12
T14 peptide: PKLTRMLTFKFYMPK
Procedure: as §1, §2, §3

Reference peptide no. 11 = target: T15, Reference peptide no. 11; experiment: peptide microarray (RepliTope)
T15 construct: hIL-2 15-mer, first library, on microarray; also called peptide 11
T15 peptide: YKNPKLTRMLTFKFY
Procedure: as §1, §2, §3

Reference peptide no. 13 [2] = target: T5, Reference peptide no. 13; experiment: peptide microarray (RepliTope)
Procedure: as §1, §2, §3

Reference peptide no. 10 = target: T16, Reference peptide no. 10; experiment: peptide microarray (RepliTope)
T16 construct: hIL-2 15-mer, first library, on microarray; also called peptide 10
T16 peptide: INNYKNPKLTRMLTF
Procedure: as §1, §2, §3

Reference peptide no. 26 = target: T17, Reference peptide no. 26; experiment: peptide microarray (RepliTope)
T17 construct: hIL-2 15-mer, first library, on microarray; also called peptide 26
T17 peptide: KNFHLRPRDLISNIN
Procedure: as §1, §2, §3

Reference peptide no. 24 = target: T18, Reference peptide no. 24; experiment: peptide microarray (RepliTope)
T18 construct: hIL-2 15-mer, first library, on microarray; also called peptide 24
T18 peptide: LNLAQSKNFHLRPRD
Procedure: as §1, §2, §3

Reference peptide no. 22 = target: T19, Reference peptide no. 22; experiment: peptide microarray (RepliTope)
T19 construct: hIL-2 15-mer, first library, on microarray; also called peptide 22
T19 peptide: KPLEEVLNLAQSKNF
Procedure: as §1, §2, §3

Reference peptide no. 25 = target: T20, Reference peptide no. 25; experiment: peptide microarray (RepliTope)
T20 construct: hIL-2 15-mer, first library, on microarray; also called peptide 25
T20 peptide: AQSKNFHLRPRDLIS
Procedure: as §1, §2, §3

Reference peptide no. 23 = target: T21, Reference peptide no. 23; experiment: peptide microarray (RepliTope)
T21 construct: hIL-2 15-mer, first library, on microarray; also called peptide 23
T21 peptide: EEVLNLAQSKNFHLR
Procedure: as §1, §2, §3

murine IL-2 = target: T22, murine IL-2 (mouse, UniProt P04351 21-169); experiment: SPR, NARA1 amine-coupled to a GLM chip, mouse IL-2 as analyte at 10, 3.3, 1.1, 0.37, 0.123 and 0.041 nM
T22 construct: also called mouse IL-2; mIL-2
T22 sequence (looked up): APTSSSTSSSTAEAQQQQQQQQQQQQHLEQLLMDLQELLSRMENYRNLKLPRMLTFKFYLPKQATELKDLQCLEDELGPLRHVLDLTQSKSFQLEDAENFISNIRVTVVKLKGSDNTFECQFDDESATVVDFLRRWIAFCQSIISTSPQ

B1: NARA1 (antibody, mouse IgG2a, kappa, V domains shown)
VH: QVQLQQSGAELVRPGTSVKVSCKASGYAFTNYLIEWVKQRPGQGLEWIGVINPGSGGTNYNEKFKGKATLTADKSSSTAYMQLSSLTSDDSAVYFCARWRGDGYYAYFDVWGAGTTVTVSS
VL: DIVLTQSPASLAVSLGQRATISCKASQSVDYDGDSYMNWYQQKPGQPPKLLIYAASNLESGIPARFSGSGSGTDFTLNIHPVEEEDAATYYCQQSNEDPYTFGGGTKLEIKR
notes: Mouse monoclonal from hybridoma; Isotype controls used were mouse IgG2a; also called anti-IL2 (NARA1) antibody; monoclonal antibody NARA1
- binding result (Reference peptide no. 29): no binding
- binding result (Reference peptide no. 7): no binding
- binding result (Reference peptide no. 8): no binding
- binding result (Reference peptide no. 45): no binding
- binding result (Reference peptide no. 13 [1]): no binding
- binding result (Reference peptide no. 49): no binding
- binding result (Reference peptide no. 1): no binding
- binding result (Reference peptide no. 15): no binding
- binding result (Reference peptide no. 39): no binding
- binding result (Reference peptide no. 3): no binding
- binding result (Reference peptide no. 33): no binding
- binding result (Reference peptide no. 43): no binding
- binding result (Reference peptide no. 46): no binding
- signal intensity after subtraction of control signal (Reference peptide no. 12): 1130 AU
- signal intensity after subtraction of control signal (Reference peptide no. 11): 1190 AU
- signal intensity after subtraction of control signal (Reference peptide no. 13 [2]): 224 AU
- signal intensity after subtraction of control signal (Reference peptide no. 10): 20900 AU
- signal intensity after subtraction of control signal (Reference peptide no. 26): 0 AU
- signal intensity after subtraction of control signal (Reference peptide no. 24): 282 AU
- signal intensity after subtraction of control signal (Reference peptide no. 22): 0 AU
- signal intensity after subtraction of control signal (Reference peptide no. 25): 0 AU
- signal intensity after subtraction of control signal (Reference peptide no. 23): 32 AU
- binding result (murine IL-2): no binding (tested: 10 nM)
